The text below walks through data of US20160311925A1 (UNIVERSITY OF ROCHESTER, published 2016).

Experiment [1] addresses T1, His-AmdR1R2-B (Staphylococcus aureus, UniProt Q5HH31 198-775).
T1 construct: also called rAmd; soluble Amd; not shown: BirA biotinylation site
T1 sequence: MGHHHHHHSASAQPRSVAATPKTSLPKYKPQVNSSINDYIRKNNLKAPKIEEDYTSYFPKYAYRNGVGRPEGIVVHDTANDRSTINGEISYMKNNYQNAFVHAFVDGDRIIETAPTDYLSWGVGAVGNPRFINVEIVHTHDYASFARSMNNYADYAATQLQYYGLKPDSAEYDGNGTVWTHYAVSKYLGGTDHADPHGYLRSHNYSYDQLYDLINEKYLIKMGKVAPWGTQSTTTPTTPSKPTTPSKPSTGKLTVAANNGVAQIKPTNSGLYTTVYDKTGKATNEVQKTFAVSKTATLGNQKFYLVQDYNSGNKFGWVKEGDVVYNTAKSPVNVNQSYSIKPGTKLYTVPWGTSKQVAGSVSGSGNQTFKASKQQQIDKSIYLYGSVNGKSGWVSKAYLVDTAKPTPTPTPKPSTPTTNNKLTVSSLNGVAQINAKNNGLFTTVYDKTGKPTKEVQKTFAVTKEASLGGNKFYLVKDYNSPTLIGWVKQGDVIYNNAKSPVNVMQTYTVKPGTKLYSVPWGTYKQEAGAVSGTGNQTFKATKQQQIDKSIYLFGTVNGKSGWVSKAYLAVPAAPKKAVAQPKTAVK
The experiment is described as follows: SPR, Biacore T-200; immobilized (captured) mAb, soluble His-AmdR1R2-B.

Experiment [2] deals with T1, His-AmdR1R2-B. Description: SPR, Biacore T-200; mAb captured by rabbit anti-mouse Fc IgG on a CM-5 chip, Amd at 1.56 to 25 nM; the single run shown in FIG. 4.
Protocol: (§1) The capture (association, t=0 to 120 sec) and release (dissociation, t=120 to 420 sec) phases are presented. […] Measurements were made according the manufacturer's instructions and kinetic data were analyzed using biomolecular interaction analysis (BIA) evaluation software (version 3.1) from Biacore AB.
(§2) The affinity of immobilized anti-Amd mAbs for soluble His-AmdR1R2-B was measured using surface plasmon resonance technology on a Biacore T-200.
Experiment [3] concerns the target T1, His-AmdR1R2-B. The experiment is described as follows: SPR (Biacore T-200): Ab 1.6 (20nM) captured on immobilized rabbit anti-mouse Fc (RamFc), soluble Amd flowed at 1.56 to 25 nM.
Protocol: as §1, §2
Experiment [4] addresses T1, His-AmdR1R2-B. Description: SPR, Biacore T-200; immobilized (captured) mAb, soluble His-AmdR1R2-B; average.
Protocol: as §1, §2
The target of experiment [5] is T1, His-AmdR1R2-B. Description: cell-based or functional assay.

B1: anti-Amd mAb Amd1.11 (antibody, V domains shown)
VH: QIQLVQSGPELKKPGETVKISCKASGYTFTNYGMNWVKQAPGKGLEWMGWINTYTGEPTYADDFKGRFAFSLETSASTAYLLINNLKNEDTATYFCARRDGYFDAMDYWGQGTSVTVSS
VL: DILLTQSPAILSVSPGERVSFSCRASQSIGTSIHWYQQRTNGSPRLLIKYASESISGIPSRFSGSGSGTDFTLSINSVESEDIADYYCQQSNSWPALTFG
notes: Mouse hybridoma mAb (Fusion #1), IgG1; The VL is incomplete at the C-terminus
As for B1, binding in the experiment with His-AmdR1R2-B [1] was put at a Kd of 3.4 nM.

B2: anti-Amd mAb Amd2.2 (antibody, V domains shown)
VH: ESGPELVKPGASVKISCKASGYTFTDYNMHWVRQSHGKSLEWIGYIYPYNGGTGYNQKFKSKATLTVDNSSSTAYMELRSLTSEDSAVYYCAREDGYYGYFDYWGQGTTLTGSS
VL: EIVLTQSPAITAASLGQKVTITCSASSSVNYMHWYQQKSGTSPKPWIYEISKLASGVPARFSGSGSGTSYSLTISSMEAEDAAIYYCQQWNYPLITFGAGTKLELK
notes: Mouse hybridoma mAb (Fusion #2), IgG1; The VH is incomplete at the N-terminus
Turning to B2, the equilibrium dissociation constant (Kd) with His-AmdR1R2-B [1] turned out to be 1.4 nM.

B3: anti-Amd mAb Amd1.6 (antibody, IgG1, V domains shown)
VH: QSGTVLARPGTSVKMSCKASGYSFTNYWMHWVRQRPGQGLEWIGSIYPGNSDTTYNQKFKDKAKLTAVTSASTAYMELSSLTNEDSAVYYCTGDDYSRFSYWGQGTLVTVSA
VL: SIVMTQTPKFLLVSAGDRLTITCKASQSVSNDVAWYQQKPGQSPKLLIYYTSNRYTGVPDRFTGSGYGTDFTFTISTVQAEDLAVYFCQQDYNSPWTFGGGTK
notes: Mouse hybridoma mAb (Fusion #1), IgG1; The variable domains are incomplete at the termini; also called mAb1.6
B3: the Kd with His-AmdR1R2-B [2] was approximately 1 nM; with His-AmdR1R2-B [3] it was 1.03 nM; with His-AmdR1R2-B [4], 2.1 nM. In addition, in the experiment with His-AmdR1R2-B [5], the “IC50 (read off the curve)” value was approximately 2 µg/mL.

B4: anti-Amd mAb Amd1.9 (antibody, V domains shown)
VH: VESGGGLVKPGGSLKLSCAASGFTFSSYAMSWVRQTPKKSLEWVASITSGGSAYYPDSVKGRFTISRDNARNILNLQMSSLRSEDTAMYYCARDDGYFDYWGQGTTLTVSS
VL: DIQMTQSPASLSVSVGETVTITCRTSENIFSNFAWYQQQPGKSPQLLVYGATNLADGVPSRFSGSGSGTQYSLKITSLQSEDFGSYYCQHFWGSPWTF
notes: Mouse hybridoma mAb (Fusion #1), IgG1; The variable domains are incomplete at the termini
Turning to B4, the equilibrium dissociation constant (Kd) with His-AmdR1R2-B [1] was 2.6 nM.

B5: anti-Amd mAb Amd1.1 (antibody, IgG1, V domains shown)
VH: QQSGAELVKPGASVKLSCTASGFNIKDTYIHWVKQRPEQGLEWIGRIDPANGITNYDPKFQGRATITADTSSNIAYLQLTSLTSEGTAVYYCARGGYLSPYAMDYWGQGTSVTVSS
VL: ENVLTQSPAIMSASLGEKVTMTCRASSSVNYMFWFQQKSDASPKLWIYYTSNLAPGVPARFSGSGSGNSYSLTISSMEGEDAATYYCQEFTSFPYTFG
As to B5, binding with His-AmdR1R2-B [1] was put at a Kd of 2.5 nM.
